Measurements reported in paper PMC5906670, “Structural basis of epilepsy-related ligand–receptor complex LGI1–ADAM22” (Nature Communications, 2018).

B1: ADAM22 ECD-FLAG [human] / LGI1-His6 [human] (parent)
chain 1: SKRQLRRYPRNVEEETKYIELMIVNDHLMFKKHRLSVVHTNTYAKSVVNMADLIYKDQLKTRIVLVAMETWATDNKFAISENPLITLREFMKYRRDFIKEKSDAVHLFSGSQFESSRSGAAYIGGICSLLKGGGVNEFGKTDLMAVTLAQSLAHNIGIISDKRKLASGECKCEDTWSGCIMGDTGYYLPKKFTQCNIEEYHDFLNSGGGACLFNKPSKLLDPPECGNGFIETGEECDCGTPAECVLEGAECCKKCTLTQDSQCSDGLCCKKCKFQPMGTVCREAVNDCDIRETCSGNSSQCAPNIHKMDGYSCDGVQGICFGGRCKTRDRQCKYIWGQKVTASDKYCYEKLNIEGTEKGNCGKDKDTWIQCNKRDVLCGYLLCTNIGNIPRLGELDGEITSTLVVQQGRTLNCSGGHVKLEEDVDLGYVEDGTPCGPQMMCLEHRCLPVASFNFSTCLSSKEGTICSGNGVCSNELKCVCNRHWIGSDCNTYFPHNDDAKTGITLSG
chain 2: KKPAKPKCPAVCTCTKDNALCENARSIPRTVPPDVISLSFVRSGFTEISEGSFLFTPSLQLLLFTSNSFDVISDDAFIGLPHLEYLFIENNNIKSISRHTFRGLKSLIHLSLANNNLQTLPKDIFKGLDSLTNVDLRGNSFNCDCKLKWLVEWLGHTNATVEDIYCEGPPEYKKRKINSLSSKDFDCIITEFAKSQDLPYQSLSIDTFSYLNDEYVVIAQPFTGKCIFLEWDHVEKTFRNYDNITGTSTVVCKPIVIETQLYVIVAQLFGGSHIYKRDSFANKFIKIQDIEILKIRKPNDIETFKIENNWYFVVADSSKAGFTTIYKWNGNGFYSHQSLHAWYRDTDVEYLEIVRTPQTLRTPHLILSSSSQRPVIYQWNKATQLFTNQTDIPNMEDVYAVKHFSVKGDVYICLTRFIGDSKVMKWGGSSFQDIQRMPSRGSMVFQPLQINNYQYAILGSDYSFTQVYNWDAEKAKFVKFQELNVQAPRSFTHVSINKRNFLFASSFKGNTQIYKHVIVDLSA

Variants of: B1
Assay: pull-down
Details: with LGI1-His6 [human]; Ni-NTA agarose; proteins secreted from HEK293T cells; n = 5 independent experiments; read off a plot

Variant | percent of parent
chain 1 Y186A | 4 % of WT
chain 1 D183A | 37 % of WT
